Biological target: SYD-2/Liprin-α N-terminal fragment (coiled-coils and IDR) (UniProt Q21049)
Test: GFP-trap pull-down, Coomassie gel
Settings: reference: SAD-1-phosphorylated wild-type SAM; sites S896,S901,S904

binding against the reference: stronger
Substance: SYD-2/Liprin-α SAM domains, 844-1139 (from UniProt Q21049) SAD-1-phosphorylated SAM(3A)

From PMC10695385
